Experimental data as given in patent US20210070811A1 (BOARD OF TRUSTEES OF MICHIGAN STATE UNIVERSITY, published 2021).

Biological target: the molecule itself
Assay: circular dichroism of PilA19 with SDS at pH 3.8; 222 nm/208 nm intensity ratio of 1

B1: PilA19 (truncated PilA pilin peptide of Geobacter sulfurreducens lacking the first 19 N-terminal amino acids of the mature PilA) (peptide)
peptide: AIPQFSAYRVKAYNSAASSDLRNLKTALESAFADDQTYPPES
notes: Recombinant peptide made in E. coli as a CBD-intein fusion and released by DTT-induced intein splicing; 42 residues; It self-assembles into a fibre; also called PilA19 peptide; recombinant PilA19
B1: binds.
